Results on 16 molecules are retold here after paper PMC2628979 (Molecular microbiology, 2007).

T1: N-CEA V39A (human, UniProt P06731 34-144, V39A)
T1 sequence: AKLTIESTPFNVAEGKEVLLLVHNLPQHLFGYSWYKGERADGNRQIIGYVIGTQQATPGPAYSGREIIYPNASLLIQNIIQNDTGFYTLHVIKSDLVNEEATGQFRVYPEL

B1: N-CEA L95C (domain or fragment)
chain: T1 sequence with A40V, L96C
B2: N-terminal domain of carcinoembryonic antigen (N-CEA) (domain or fragment)
chain: T1 sequence with A40V
B3: N-CEA Q76A (domain or fragment)
chain: T1 sequence with A40V, Q77A
B4: N-CEA F29I (domain or fragment)
chain: T1 sequence with F30I, A40V
B5: N-CEA F29R (domain or fragment)
chain: T1 sequence with F30R, A40V
B6: N-CEA H89Q (domain or fragment)
chain: T1 sequence with A40V, H90Q
B7: N-CEA L74A (domain or fragment)
chain: T1 sequence with A40V, L75A
B8: N-CEA D40A (domain or fragment)
chain: T1 sequence with A40V, D41A
B9: N-CEA L95A (domain or fragment)
chain: T1 sequence with A40V, L96A
B10: N-CEA V39C mutant (domain or fragment)
chain: T1 sequence with A40C
B11: N-CEA Q44R (domain or fragment)
chain: T1 sequence with A40V, Q45R
B12: N-terminal domain of CEACAM1 (N-CEACAM1) (domain or fragment)
chain: QLTTESMPFNVAEGKEVLLLVHNLPQQLFGYSWYKGERVDGNRQIVGYAIGTQQATPGPANSGRETIYPNASLLIQNVTQNDTGFYTLQVIKSDLVNEEATGQFHVYP
B13: N-CEA S32N (domain or fragment)
chain: T1 sequence with S33N, A40V
B14: N-CEA I91A (domain or fragment)
chain: T1 sequence with A40V, I92A
B15: N-terminal domain of CEACAM6 (N-CEACAM6) (domain or fragment)
chain: KLTIESTPFNVAEGKEVLLLAHNLPQNRIGYSWYKGERVDGNSLIVGYVIGTQQATPGPAYSGRETIYPNASLLIQNVTQNDTGFYTLQVIKSDLVNEEATGQFHVYP

For series [1], the target named is TMR labeled H27C N-CEA mutant (human) (UniProt P06731). In words: absorbance of tetramethylrhodamine dimers.
The series “SEC” deals with the molecule itself. Briefly: SEC. A general note: In gel filtration, larger molecules generally elute earlier.
The series “AUC” concerns the molecule itself. Briefly: AUC.
Series [2] concerns the target B2. Briefly: SPR. For orientation: Surface plasmon resonance follows binding to a sensor surface in real time, without labels.
The series “cross-linking” deals with the molecule itself. Briefly: cross-linking.
For the series “N-CEA F29R”, the target named is B5. Briefly: SPR.
The target in the series “N-CEA S32N” is B13. Briefly: SPR.
A further series deals with T1, N-CEA V39A. Briefly: SPR.
The target in the series “N-CEA Q44R” is B11. In words: SPR.
Series [3] has as its target B2. Briefly: SPR. The source holds these as a separate data set.
In series [4] the target is B2. Briefly: SPR. This is another data set of the same source.

Where a chain is given by its changes, count along the chain named. Names may count otherwise. Where two headings read alike, the source gives them in different places.

Regarding “DraE monomer (DraE-dsc) (natural protein)”, in [1], the 518/555 absorbance ratio of TMR-labeled N-CEA after dilution with DraE was 0.48.

A word on the stoichiometry N: it is the number of molecules, sites or subunits per partner or assembly. Turning to B1, the “stoichiometry N” value in “SEC” is 2.

By Kd is commonly meant the equilibrium constant for the complex coming apart. A high value points to a looser complex. B2: binding in the series “AUC” was characterised by a dissociation constant (Kd) of 0.8 µM. Further, in the series “SEC”, the “stoichiometry N” value amounted to 2.

On to B3, for which the “stoichiometry N” value in “SEC” turned out to be 2.

In the case of B4, in “SEC”, the “stoichiometry N” value was 2.

Molecule B5 returned a Kd in series [2] of roughly 200 µM.

For the molecule B6, the “stoichiometry N” value in the series “SEC” is 2.

Take B7: in the series “SEC”, the “stoichiometry N” value came to 2.

As for B8, in the series “SEC”, the “stoichiometry N” value worked out at 2.

As for B9, the “stoichiometry N” value in “SEC” was 2.

For B10, the “stoichiometry N” value in the series “cross-linking” is 2.

The molecule B11 displayed a Kd in series [2] of roughly 130 µM.

Consider B12, for which the dissociation constant Kd with N-CEA F29R is roughly 100 µM; with N-CEA S32N, roughly 100 µM; with N-CEA V39A, roughly 100 µM; with N-CEA Q44R, 72 ± 9 µM.

In [2], B13 yielded a dissociation constant Kd of roughly 200 µM.

On to B14, for which binding in series [2] was characterised by a dissociation constant (Kd) of 55 ± 6 µM.

Take B15: the Kd in series [3] is roughly 100 µM; in the series with N-CEA F29R, roughly 200 µM; in the series with N-CEA S32N, roughly 200 µM; with N-CEA Q44R, 28 ± 3 µM; in [4] it was 65 ± 7 µM.
